# From the DeepSol protein solubility set
# Experiment: soluble on expression in E. coli; label from the status in PepcDB or PDB records
row,Sequence,soluble on expression in E. coli
1,MAGDPNSMNLKQSIEEIINQPEYEPMSVSDFQDALGLSSADSFRDLIKVLVELEQSGLIERTKTDRYQKKHSSKGHSKLIKGTLSQNKKGFAFLRPEDEDMEDIFIPPTKINRALDGDTVIVEIHQSKGEHKGKIEGEVKSIEKHSVTQVVGTYSEARHFGFVIPDDKRIMQDIFIPKGQSLGAVDGHKVLVQITKYADGSDNPEGHISAILGHKNDPGVDILSIIYQHGIEIEFPDEVLQEAEAVPDHIENTEIKGRHDLRDELTITIDGADAKDLDDAISVKKLANGNTQLTVSIADVSYYVTEGSALDKEAYDRATSVYLVDRVIPMIPHRLSNGICSLNPNVDRLTLSCRMEIDASGRVVKHEIFDSVIHSDYRMTYDAVNQIITEKDPNIREQYKEITPMLDLAQDLSNRLIQMRKRRGEIDFDINEAKVLVNEDGIPTDVQLRQRGEGERLIESFMLIANETVAEHFSKLDVPFIYRVHEQPKSDRLRQFFDFITNFGIMIKGTGEDIHPTTLQKVQEEVEGRPEQMVISTMMLRSMQQAHYDDVNLGHFGLSAEYYTHFTSPIRRYPDLTVHRLIRKYLIEKSMDNKEVKRWEDKLPELAEHTSKRERRAIEAERDTDELKKAEYMIQHIGDEFEGIVSSVANFGMFIELPNTIEGMVHIANMTDDYYRFEERQMALIGERQAKVFRIGDTVKVKVTHVDVDERLIDFQIVGMPLPKNDRSQRPARGKTIQAKTRGKSLDKSKSDDKGRKKKGSQRKGKNERKNDKSGNSKHKPFYKDKSVKKKARRKKKLEHHHHHH,soluble
2,MAGHSMREHEVYSKLRAPPSSRMILRLDGRGFHRLTESLDFDRPYDEAFRDLMIRTCLDLMEEFSPSLIYTFSDEINVLLDSVPFAGRVEKLDSVFSGFASSSFTRGALEAGFSPVKPVSFDCRVIPISSDIVPEYFRSRQDESWRNCLNSYAYWTLRREVGARRAAERLRGLKSDSLHDLLFERGVNISRVPAWQRRGVGVYRVPHRVRGYNPIRDEEVSAVRMRVKVDLELPLFTDEFFEGLMRLEHHHHHH,not soluble
3,MAGNAPLQQVQKKWAECQYSTPDGDEKEQCFHRAIAKTSIYLDREPGNPELTVWLAINKASLAGAQGGFGALSLAKEAKSLLEGVIATSPQTLDGSAYTSLGSLYYKVPGWPIGFGDDDKAEEMLKKALEINPKGIDPNYFYGDFLAEEGRDKEAKVYLTRAMQASPRPDRPLADKGRKLEIEATLGRLKLEHHHHHH,soluble
4,MAGQEHHYAVQVKWTGNRGKGTSGYRDYERDYTISTAGKADITGSSDPAFRGDPSRWNPEDLLVASLSACHKLWYLHFCSVNGIIVEDYVDNAEGTLVMEKDGAGQFSEVVLKPVITISKGDPARADELHHDAHDKCFIARSVNFPIRVQGTVKVV,not soluble
5,MAGQLPRRIIKETQRLLADPVPGISANPDESNARYFHVMIAGPDDSPFAGGVFKLELFLPEEYPMAAPKVRFMTKIYHPNIDKLGRICLDILKDKWSPALQIRTVLLSIQALLSAPNPEDPLATDVAEQWKTNEAEAIKTAKQWTMNYAQA,not soluble
6,MAGTSFLSDLLSGVTERGRALLFSGSKARDRVVDTDIETLCEMLLSSRGEASGMAIAAEILDRWSRFNAAEAVQFLHMLSDRFGAEAAALDKAIDAYRTDKSPMAVIALHNAAEPRRQELLRRLNLAPNGTQKLVRMRERLLETKEDRADLGAVDTDFAHLFSSWFNRGFLTLQPIDWTTPAHILEKIIKYEAVHEIAGWEELRRRLAPADRRCFAFFHPRLRDDPLVFVEVALTRSIPSAIADVLDESRDHIGADTATTAVFYSISNCQDGLRGISFGNFLIKQVVEDLRRDLPGLKEFVTLSPVPGFARWISKIRDPKSGFPLSPEDRNTLVLLDDPTWPEDKARADAVERILLPLAARYFITERTPDNRPVDPVARFHLGNGARLERLNFLGDRSVKAMRQAHGLMVNYLYKLEDIETNHEALAQRGEVAASPAVKALQGKIEPILPEKPKLEHHHHHH,soluble
7,MAHHHHHHHRSPTRVNDGVDADEVTFVNRFTVHGAPAEFESVFARTAAFFARQPGFVRHTLLRERDKDNSYVNIAVWTDHDAFRRALAQPGFLPHATALRALSTSEHGLFTARQTLPEGGDTTGSGHR,soluble
8,MAHHHHHHMAAACGCRSLLSRDMPRRFPMCVASGTMCRRLCDCRMEGEERRELRERRCQESRWASCRRAHCPPSPAPPCRAPSITPQHRSRRHQHTARQRMPPPSRVRPEGTRPLLRSEESHRVAQRRAQNLLADSAHDTGQWTLSVCVVEDTAVESLLSSGWTVG,not soluble
9,MAHHHHHHMAAMLRLTFALRLSSKQLSHGPLATHTRKQSFRQSKTALQVSRLRSQTQRANFNLQQELNRDFGARQYAFAQGRRSMQRAAEDLMYDRAYRAERHRGRAGEVYRTTKDRAAEVATARQLLQMQESTRRLMKKGRTQRVEAFRAQKQWNR,not soluble
10,MAHHHHHHMAKNDIWTPLESNPDSLYLYSCKLGQSKLKFVDIYGFNNDLLDMIPQPVQAVIFLYPVNDNIVSENNTNDKHNLKENFDNVWFIKQVKIITLCNMNNILPILYVCFNSIELKNNKSIENLHHEFCGQVENRDDILDVDTHFIVFVQIEGKIIELDGRKDHPTVHCFTNGDNFLYDTGKIIQDKFIEKCKDDLRFSALAVIPNDNFDII,soluble
11,MAHHHHHHMALLQRVAQVMQEVAPLSLADHSWDNVGVLLESPAPNKSNAIMLTIDLTPEVMEECLEKNVEVILAYHPPLFRPVKRLTLQDPKQRIILQAASAGMSIYAPHTSLDAAEGGINDWLASLVAGDGAYTASPIQPTSSYAPNAAEATKATGMGRLVKLKEEVEFCSMVGSLKQQLGLATVRVALPDSWEPSHKVSSVALCAGSGTSVFRLLRLPVHVLLSGEMSHHDVLAATAAGQAVILCEHTNTERGFLKAVLQRTLQAKLEGTTVLVSDKDSDPLTAW,soluble
12,MAHHHHHHMALPRGMHLLLKIYLQKCRLRWLREALNCIRGMVSMRLVMASMGSTPVERHKGEVAPGAEGEDTHFWLDGSFAEAEEALRQFFEMIKFPLPQRFSFAEEIRRDMKKRYPHCGEEALKSEEDITVVDAAALFKCVDGYIAFLSTRSDVGIGNAE,not soluble
13,MAHHHHHHMARSLQDPRLSFYCEQYDHIAHRMNHYVLQFYFEDRTVEIREVTKNRLHLKRAHFPHLNRDDFKVGSSLSLLGGVIKLTAYADEVTRELCGERGEVTAVMFGEQLLPQLGRCLAVLTEECGFVALEMQMAWLPVETAAAYGVPPDLVEGRIVVVKCANTNALQRGIDFMARMPGARAAESVEEVGRWEQIVEKAKEQPVAILGDPNSTVVIIKPHALQKLAGGVIVQQLIDAGLEISGISLTNMTSQQANELLKPYKGVLPDFPDTMRSLMGTVWVLQFVSLDEGVDVVSVAREVCGPFDPVIAKELRPTSIRARFGVDRAHNAVHCCDLHEEGPLYSNFFFRPEDVDE,not soluble
14,MAHHHHHHMASEEPLNEIPGECPTPGDLGHAGWDVLHTAGAVYPYKPSPLQQEAFRSFLYSWSHVYACSHCSYHMRRYLKRNPPVVTDKLALNRYLCEFHNTVNKNIAKPVYNCDPMVVLRRWHPTFPDMEDQPTIEEQIAEQRRLEQAEAQKQKEKELQQKQVQTSSLGDMKASRERLVGRWRSEKSESHEYANNNPSSVGAFATGWSASSRQHENAGDAAAKSAPAPLAESREKRWWIFGKNGSGDKNAGFSSTTGTPSKVNSSGGGSNSGGMNGSLDDDEASVMAILKRLKACMVYCPDKDEKSNSA,not soluble
15,MAHHHHHHMASVPFTEEDLHELYTWVDEIPISRQKRNIARDFADGCSVAEILKFFFPKLVDLHNYVPAMSHAKKLDNWNTLNAKVLRKLYFEVPPEEVEDIVAAVPGAIERFLRALRVKVAQIKARRDEMLRMGEIQAHVNAHHVDPSPSQPQPREGGHVRDGGASAATAHRGSGRPSSPAAPAGPVASSRGSSSAGPQAPPRQTQPQRQPTPPLVNEAASLTQALREKDYTIQELRETVAILSEKIVKLEELVRVKDEKLNQYRQKVGRVPA,soluble
16,MAHHHHHHMASYQYFSYIDLYKVNNVNLDPFTEVFNDKFYLRYIYKWPHMNIITKEIDDHTSGYILGKEEGFGQDYHGHVTALSIEEDSRRTGKGVDLMTEFEKITQIIHKGNFVDLFVRVSNNPAINMYKKLGYVINEEINNYYCGNESALDMRKYLDITNS,soluble
17,MAHHHHHHMAWTVHEDEYRTEGYDNLEEILQYVVHTEESVQQSKPTVKYTKSSQVFATPSPLTAAELSSPIKHQLTNTVPWQPQSHTPTNSSFHSLGIPYTSAQSPQQRRCNNRFNGSYSGQCDRKPKIMSSSETCILSPGARKRGMGTGQMDHMMATELNEMPMPELITQEVLASKDMMVGGGYSDWSGSGSKYFQSGALTADSLRGRVYETAKDQHGCRYLQRWLDTNCDPEALQVMMNEIIPHVGELMTDQYANFLIQKLFDIMPDDVRYKVAIVAAPQICMISLTPHGTFSVQKMIETISTREEMEIISEALCKDVVRLVKDAHGNHVIQKVLQRFDFDDKEYIYRAVATDCVSIAKNKQGCCVLQRCLEHASPRQKAALVDQVLACCLQIVQDPFGNYVLQYVLEEHDSKINDTIALAFLPHLVQLSMNKFSSNVMEKVLRGASGPVQVMYMEEMCNPEIISHLIQDDYGNYVLQTALTINAPVQAAQLVNVIRPFMPLIRNAPYAKKMEGKMENVARKVECNHFHAPRDCEVDARQGSSGGSPHGKFDRSPNHGRHYVGGTDQQQPYNHPT,not soluble
18,MAHHHHHHMCADGVDKVPDETDNRETNEKKRPKRKRRYIDIDKMNFDFEEEDFASSSNEELVRRNYVNEEEYTGGYANGYTNEHMNGLPYQKDINMNSEVIRGLLEPPPIPFNDTFQKYNREISDVYVKQKKKSSGTLNIFLESQLLCIDEGAFEKENNFINNHFDNFIMRKLNVVNTTNMQDTTNQNKDLQELLKYLMSWYFSGFYSGRVSMLKELHGE,soluble
19,MAHHHHHHMCLSTCLLYLKQIREDSQYVIISRIDHKTCYKCISFCNLKYFVVDMIYKNEELYTDLEGIEKLLEEYKEKICCVMSATSVYAPRNSDDIIKIAHICKKYNTPHIINNAFGLQCTYICKEIQKCFESQGRVDFVVQSCDKNFLVPVNGGIIFSSNREQMKLLKKSYPGRTPVNAYLDLFITLLEMGKDKIMNLRKERVDNFNWLKEKIQLLCLKYNLELIKTSKNFISMAINLNHMYTHCNTDNPKVINMLGSMLFYRNVTGHRVICSPLLNRNYLLKKAREKYMNMLENKKGNDAMMITSNESNEENVKRDLSKKEADIYDNMYSNGFDEIKSVENDMLQNKSNIIKAYEKQIEEEFDKLNEPNTIVIGNHKFKNFGSSYNSYPISYIAFSCVVGIERPELENFVSKLDNAIDYFIKFFKKKKEEELK,not soluble
20,MAHHHHHHMCVKCLFLARSEMAIEESACNDDSQAVTEATSERTVNSATVFRYPFNTMDLGWLVGYIDAFLVKSERWAAAMRLTTCFMTFTVLHEDPLMEDATFQLHKTMLDRSIKKSWPRRNRDLSNTFDAAYHVFETICIVSKYPNLDPAGKAGILRMSEKLIQGMEKPMDNVVIKIDLKKKSETLHATLARLQALGRAPESLSAFDALMASLKMVFFCYVASLGINNMMLDANLNKMDSYVCCEGCPCHAKLRTTYTLFIRDVEKTKVIDCLLIMAVKEDDAFLSKLAEGLFTQFDCRSPFLEKPVRRIQNGALFMVRIALFDAFRHVKALLVDLRASPASLAPQIDNVVLALYIARREMRGMKGLNEHLPLVNKALATADSIYSRLGTENASQELRTLKDYITKIFFLVSAPEFHLAVHSKDPLVGKGAKLCCGNPDCPGKVKEMLKCSGCRVTFYCSVTCQRDDWKTHRFLCKEMGCRKAAPAPIKMAECSTETLKPAAFHG,not soluble
